Where two headings read alike, the source gives them in different places. Numbered stars: 1 amine (or outer) side, 2 acyl side, 3 side chain; on linkers, the order of the positions; unused ones are H or OH. Bridge positions count the residues as written; N and C are the ends. Square brackets hold non-standard residues; d marks the D form. Asp(OMe) = L-aspartic acid beta-methyl ester, COC(=O)C[C@H](N[*:1])C(=O)[*:2]; Phe(3,4-Cl2) = N[C@@H](Cc1ccc(Cl)c(Cl)c1)C(=O)O; Phe(4-tBu) = CC(C)(C)c1ccc(C[C@H](N)C(=O)O)cc1; Phe(2,4-Cl2) = N[C@@H](Cc1ccc(Cl)cc1Cl)C(=O)O; NMeR = CN[C@@H](CCCNC(=N)N)C(=O)O; hPhe = N[C@@H](CCc1ccccc1)C(=O)O; β3hE = N[C@@H](CCC(=O)O)CC(=O)O; Pen = CC(C)(S)[C@H](N)C(=O)O; βAla = NCCC(=O)O

In patent publication US20220162261A1 (published 2022) one finds IC50 data, which are given here for 22 molecules.

In assay [1] the target is T1, rh integrin α4β7 (R&D Systems #5397-A30) (human, UniProt P13612 34-970; P26010 20-723).
T1 construct: bought; coated on a nickel coated plate; also called immobilized α4β7; immobilized α4β7 integrin protein
The experiment in a line: competition ELISA vs MAdCAM-1. (In general: In an ELISA, binding on a coated surface is turned into a signal by an enzyme label.)

Assay [2] addresses T2, human α4β7 integrin on cells (human, UniProt P13612 34-1032; P26010 20-798).
T2 construct: whole, on cells; also called α4β7 cell (Hu); RPMI8866 cells
The experiment in a line: RPMI8866 cell adhesion to MAdCAM-1.

The target of assay [3] is T1, rh integrin α4β7 (R&D Systems #5397-A30). The experiment in a line: competition ELISA vs MAdCAM-1. The source holds these as a separate data set.
For assay [4], the target named is T2, human α4β7 integrin on cells. The experiment in a line: RPMI8866 cell adhesion to MAdCAM-1. The source holds these as a separate data set.
In assay [5] the target is T3, α4β1 (R&D Systems #5668-A4) (UniProt P13612 34-970; P05556 21-728, limits assumed).
T3 construct: bought; also called soluble α4β1
The experiment in a line: competition ELISA vs VCAM-1.

B1: SEQ ID NO: 19 (peptide)
peptide: Ac-[Pen][NMeR]SDTL[Pen][hPhe]E[dK]-NH2
modifications: disulfide 1-7
SMILES: CC(=O)N[C@@H]1C(=O)N(C)[C@@H](CCCNC(=N)N)C(=O)N[C@@H](CO)C(=O)N[C@@H](CC(=O)O)C(=O)N[C@@H]([C@@H](C)O)C(=O)N[C@@H](CC(C)C)C(=O)N[C@H](C(=O)N[C@@H](CCc2ccccc2)C(=O)N[C@@H](CCC(=O)O)C(=O)N[C@H](CCCCN)C(N)=O)C(C)(C)SSC1(C)C
Consider B1, for which the IC50 (commonly the concentration that gives 50% inhibition) in assay [1] was over 10 nM.
With Ac-[Pen][NMeR]S[Asp(OMe)]TL[Pen]WE[dK]-NH2 (disulfide 1-7; also: Biotine, site of attachment not given here) [SEQ ID NO: 69], the IC50 in assay [1] was over 10 nM; in assay [2], over 100 nM.

B2: SEQ ID NO: 73 (peptide)
peptide: Ac-[Pen][NMeR]S[Asp(OMe)]TL[Pen]WE[dK]-NH2
modifications: disulfide 1-7; not fully specified (residue 10); printed as (Ac Pen N-Me-R S D(OMe) T L Pen W E k NH2)2 DIG, disulfide Pen-Pen; also: homodimer: two subunits linked by DIG via D-Lys10 side chain
In the case of B2, the IC50 in assay [1] and in assay [2] was at most 10 nM throughout.

B3: SEQ ID NO: 206 (peptide)
peptide: Ac-[Pen]RSDTLC[dK]-NH2
modifications: disulfide 1-7
SMILES: CC(=O)N[C@@H]1C(=O)N[C@@H](CCCNC(=N)N)C(=O)N[C@@H](CO)C(=O)N[C@@H](CC(=O)O)C(=O)N[C@@H]([C@@H](C)O)C(=O)N[C@@H](CC(C)C)C(=O)N[C@H](C(=O)N[C@H](CCCCN)C(N)=O)CSSC1(C)C
notes: also called peptide 206
In assay [3], B3 registered an IC50 of 97 nM.

B4: SEQ ID NO: 183 (peptide)
peptide: Ac-[Pen][NMeR]SDTL[Pen][Phe(4-tBu)][β3hE][dK]-NH2
modifications: disulfide 1-7; not fully specified (residue 10); printed as (Ac Pen N-Me-R S D T L Pen F(4-Bu) b-H-E k NH2)2 IDA Alexa-647, disulfide Pen-Pen; also: homodimer: two subunits joined by IDA linker, Alexa-647 label on the linker
notes: F(4-Bu) as printed
B4 came in with an IC50 in assay [1] of at most 10 nM.

B5: SEQ ID NO: 144 (peptide)
peptide: cyclo([Pen][NMeR]SDTL[Pen]WE)
modifications: disulfide 1-7
SMILES: CC(C)C[C@@H]1NC(=O)[C@H]([C@@H](C)O)NC(=O)[C@H](CC(=O)O)NC(=O)[C@H](CO)NC(=O)[C@H](CCCNC(=N)N)N(C)C(=O)[C@H]2NC(=O)[C@H](CCC(=O)O)NC(=O)[C@H](Cc3c[nH]c4ccccc34)NC(=O)[C@@H](NC1=O)C(C)(C)SSC2(C)C
As for B5, the IC50 is 364 nM in assay [1] and over 10000 nM in assay [2].
In the case of XRSDTLXWK (Ac Pen N-Me-R S D T L Pen W k NH2; disulfide Pen-Pen, also called peptide 208) [SEQ ID NO: 208], the IC50 in assay [3] amounted to 30.5 nM; in assay [4], 412 nM.

B6: SEQ ID NO: 49 (peptide)
peptide: Ac-[Pen][NMeR]SDTL[Pen]WEP[dK]-NH2
modifications: disulfide 1-7
SMILES: CC(=O)N[C@@H]1C(=O)N(C)[C@@H](CCCNC(=N)N)C(=O)N[C@@H](CO)C(=O)N[C@@H](CC(=O)O)C(=O)N[C@@H]([C@@H](C)O)C(=O)N[C@@H](CC(C)C)C(=O)N[C@H](C(=O)N[C@@H](Cc2c[nH]c3ccccc23)C(=O)N[C@@H](CCC(=O)O)C(=O)N2CCC[C@H]2C(=O)N[C@H](CCCCN)C(N)=O)C(C)(C)SSC1(C)C
Take B6: in assay [1], the IC50 was over 10 nM.

B7: SEQ ID NO: 42 (peptide)
peptide: Ac-[Pen][NMeR]SDTL[Pen][Phe(2,4-Cl2)]E[dK]-NH2
modifications: disulfide 1-7; not fully specified (residue 10); printed as (Ac Pen N-Me-R S D T L Pen F(2,4-diCl) E k NH2)2 DIG, disulfide Pen-Pen; also: dimer, two subunits joined by DIG linker
As for B7, the IC50 in assay [1] and in assay [2] was at most 10 nM in each case.
In the case of Ac-CRSDTLCGE-NH2 (disulfide 1-7 (inferred), also called peptide 194) [SEQ ID NO: 194], the IC50 in assay [3] was found to be 97 nM; in assay [5], 2020 nM; in assay [4], 590 nM.

B8: SEQ ID NO: 17 (peptide)
peptide: Ac-[Pen][NMeR]SDTL[Pen][Phe(3,4-Cl2)]E[dK]-NH2
modifications: disulfide 1-7
SMILES: CC(=O)N[C@@H]1C(=O)N(C)[C@@H](CCCNC(=N)N)C(=O)N[C@@H](CO)C(=O)N[C@@H](CC(=O)O)C(=O)N[C@@H]([C@@H](C)O)C(=O)N[C@@H](CC(C)C)C(=O)N[C@H](C(=O)N[C@@H](Cc2ccc(Cl)c(Cl)c2)C(=O)N[C@@H](CCC(=O)O)C(=O)N[C@H](CCCCN)C(N)=O)C(C)(C)SSC1(C)C
For B8, the IC50 in assay [1] was over 10 nM.
Turning to Ac-C[NMeR]SDTLCGEK-OH (disulfide 1-7 (inferred), also called peptide 199) [SEQ ID NO: 199], the IC50 in assay [3] was 58 nM; in assay [5], over 100000 nM; in assay [4], 4690 nM.

B9: SEQ ID NO: 53 (peptide)
peptide: H-[βAla][Pen][NMeR]SDTL[Pen]W[dE]-NH2
modifications: disulfide 2-8
SMILES: CC(C)C[C@@H]1NC(=O)[C@H]([C@@H](C)O)NC(=O)[C@H](CC(=O)O)NC(=O)[C@H](CO)NC(=O)[C@H](CCCNC(=N)N)N(C)C(=O)[C@@H](NC(=O)CCN)C(C)(C)SSC(C)(C)[C@@H](C(=O)N[C@@H](Cc2c[nH]c3ccccc23)C(=O)N[C@H](CCC(=O)O)C(N)=O)NC1=O
B9 gave an IC50 in assay [1] of over 10 nM.

B10: SEQ ID NO: 182 (peptide)
peptide: Ac-[Pen][NMeR]SDTL[Pen][Phe(4-tBu)][β3hE][dK]-NH2
modifications: disulfide 1-7; not fully specified (residue 10); printed as (Ac Pen N-Me-R S D T L Pen F(4-tBu) b-H-E k NH2)2 IDA Alexa-488, disulfide Pen-Pen; also: homodimer: two subunits joined by IDA linker, Alexa-488 label on the linker
The molecule B10 registered an IC50 in assay [1] of at most 10 nM.
Consider XRSDTLXWE (Cyclo [Pen N-Me-R S D T L Pen W e]; disulfide Pen-Pen) [SEQ ID NO: 145], for which the IC50 in assay [1] is 504 nM; in assay [2], over 10000 nM.
On to Ac-[Pen]RSDTLC[dK]-NH2 (disulfide 1-7; also: homodimer via DIG linker on D-Lys8 side chains, also called peptide 207) [SEQ ID NO: 207], for which the IC50 turned out to be 26 nM in assay [3] and 49 nM in assay [4].

B11: SEQ ID NO: 43 (peptide)
peptide: Ac-[Pen][NMeR]SDTL[Pen][Phe(3,4-Cl2)]E[dK]-NH2
modifications: disulfide 1-7; not fully specified (residue 10); printed as (Ac Pen N-Me-R S D T L Pen F(3,4-diCl) E k NH2)2 DIG, disulfide Pen-Pen; also: dimer, two subunits joined by DIG linker
Turning to B11, the IC50 was at most 10 nM in assay [1] and over 10 nM in assay [2].

B12: SEQ ID NO: 151 (peptide)
peptide: Ac-[Pen][NMeR]SDTL[Pen][Phe(4-tBu)]-OH
modifications: disulfide 1-7
SMILES: CC(=O)N[C@@H]1C(=O)N(C)[C@@H](CCCNC(=N)N)C(=O)N[C@@H](CO)C(=O)N[C@@H](CC(=O)O)C(=O)N[C@@H]([C@@H](C)O)C(=O)N[C@@H](CC(C)C)C(=O)N[C@H](C(=O)N[C@@H](Cc2ccc(C(C)(C)C)cc2)C(=O)O)C(C)(C)SSC1(C)C
For the molecule B12, the IC50 in assay [1] was over 10 nM; in assay [2], over 50 nM.
On to Ac-C[NMeR]SDTLCGEK-OH (disulfide 1-7 (inferred); also: dimer linked by DIG, attachment not given here, also called peptide 201) [SEQ ID NO: 201], for which the IC50 in assay [3] came out at 1 nM; in assay [5], 1240 nM; in assay [4] it was 28 nM.

B13: SEQ ID NO: 52 (peptide)
peptide: H-[βAla][Pen][NMeR]SDTL[Pen]WE-NH2
modifications: disulfide 2-8
SMILES: CC(C)C[C@@H]1NC(=O)[C@H]([C@@H](C)O)NC(=O)[C@H](CC(=O)O)NC(=O)[C@H](CO)NC(=O)[C@H](CCCNC(=N)N)N(C)C(=O)[C@@H](NC(=O)CCN)C(C)(C)SSC(C)(C)[C@@H](C(=O)N[C@@H](Cc2c[nH]c3ccccc23)C(=O)N[C@@H](CCC(=O)O)C(N)=O)NC1=O
Regarding B13, the IC50 was over 10 nM in assay [1] and over 100 nM in assay [2].

B14: SEQ ID NO: 40 (peptide)
peptide: Ac-[Pen][NMeR]SDTL[Pen][hPhe][dE][dK]-NH2
modifications: disulfide 1-7; not fully specified (residue 10); printed as (Ac Pen N-Me-R S D T L Pen HPhe e k NH2)2 DIG, disulfide Pen-Pen; also: dimer, two subunits joined by DIG linker
B14: in assay [1], the half-inhibitory concentration (IC50) was at most 10 nM.
With Ac-CRSDTLC-NH2 (disulfide 1-7 (inferred), also called peptide 195) [SEQ ID NO: 195], the IC50 was 97 nM in assay [3], 2880 nM in assay [5] and 1220 nM in assay [4].
